From the supplement of paper PMC9732359
± gives the uncertainty stated by the source.

Assay: protein stability index of a GFP-peptide fusion (yeast GPS) (PSI 1-4); higher = more stable; sorted into four equal gates, so the index is relative within each strain
Method in brief: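 Plasmids in a pooled yeast library fused tiled 17-residue yeast protein peptides downstream of GFP and also expressed Cherry. Mid-log cultures grown without leucine were sorted into four equal gates by GFP/Cherry fluorescence ratio. Each gate's plasmids were PCR-amplified and Illumina-sequenced, and reads were matched to strains by barcodes. The protein stability index is derived by multiplying each gate's read frequency by its gate number and summing the results.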

Sequence: LMEIHNILKVDSNSSSS [RGR1]
- protein stability index (doa10∆): 2.58 ± 0.06
- protein stability index (pdr5∆): 2.67 ± 0.06
- protein stability index (san1∆): 2.63 ± 0.064
- protein stability index (ubr1∆): 2.42 ± 0.049

Sequence: GRRKTWKRQNTLSLWRY [RPL15A]
- protein stability index (doa10∆): 3.21 ± 0.1
- protein stability index (pdr5∆): 3.11 ± 0.11
- protein stability index (san1∆): 2.57 ± 0.085
- protein stability index (ubr1∆): 3.37 ± 0.057

Sequence: PHGFPSRMTVGKMIELI [RET1]
- protein stability index (doa10∆): 2.54 ± 0.11
- protein stability index (pdr5∆): 2.56 ± 0.11
- protein stability index (san1∆): 2.77 ± 0.084
- protein stability index (ubr1∆): 2.46 ± 0.092

Sequence: GSVFNMNGNTNANTVFA [YOR098C/NUP1]
- protein stability index (doa10∆): 2.29 ± 0.095
- protein stability index (pdr5∆): 3 ± 0.12
- protein stability index (san1∆): 3.01 ± 0.17
- protein stability index (ubr1∆): 2.44 ± 0.066

Sequence: DKQARKQRTKKEDKSEA [SNF2]
- protein stability index (doa10∆): 3.64 ± 0.14
- protein stability index (pdr5∆): 3.54 ± 0.13
- protein stability index (san1∆): 3.25 ± 0.077
- protein stability index (ubr1∆): 3.29 ± 0.11

Sequence: LFEIVSNADTNQNSDMK [SRB8]
- protein stability index (doa10∆): 2.51 ± 0.29
- protein stability index (pdr5∆): 2.87 ± 0.29
- protein stability index (san1∆): 2.85 ± 0.16

Sequence: EGLNQRNQVQTENVAQA [YGR119C/NUP57]
- protein stability index (doa10∆): 2.96 ± 0.12
- protein stability index (pdr5∆): 2.89 ± 0.16
- protein stability index (san1∆): 2.77 ± 0.095
- protein stability index (ubr1∆): 2.65 ± 0.06

Sequence: SSPYAAMLAAQDVAAKC [RPS14B]
- protein stability index (doa10∆): 2.14 ± 0.055
- protein stability index (pdr5∆): 1.42 ± 0.055
- protein stability index (san1∆): 1.3 ± 0.082
- protein stability index (ubr1∆): 1.73 ± 0.05

Sequence: LSIELEGGKNQAELLQL [YJL039C/NUP192]
- protein stability index (doa10∆): 2.85 ± 0.14
- protein stability index (pdr5∆): 3.11 ± 0.099
- protein stability index (san1∆): 3.31 ± 0.21
- protein stability index (ubr1∆): 2.67 ± 0.11

Sequence: ETRPAQVILPMSPNHGT [FAS2]
- protein stability index (doa10∆): 2.43 ± 0.042
- protein stability index (pdr5∆): 2.38 ± 0.04
- protein stability index (san1∆): 2.46 ± 0.071
- protein stability index (ubr1∆): 2.36 ± 0.036

Sequence: ELLREWLETYSENRDKF [IRR1]
- protein stability index (doa10∆): 3.34 ± 0.066
- protein stability index (pdr5∆): 3.43 ± 0.098
- protein stability index (san1∆): 3.61 ± 0.078
- protein stability index (ubr1∆): 3.51 ± 0.056

Sequence: GVLLRDAHGVTQARVIT [RPS13]
- protein stability index (doa10∆): 2.4 ± 0.075
- protein stability index (pdr5∆): 2.57 ± 0.093
- protein stability index (san1∆): 2.85 ± 0.14
- protein stability index (ubr1∆): 2.27 ± 0.082

Sequence: EQQVKEAEMAYVKAVSD [SMC4]
- protein stability index (doa10∆): 3.21 ± 0.082
- protein stability index (pdr5∆): 2.89 ± 0.093
- protein stability index (san1∆): 2.83 ± 0.08
- protein stability index (ubr1∆): 2.83 ± 0.069

Sequence: INVETVYDIMALEDEER [BRR2]
- protein stability index (doa10∆): 2.99 ± 0.092
- protein stability index (pdr5∆): 2.8 ± 0.081
- protein stability index (san1∆): 2.73 ± 0.066
- protein stability index (ubr1∆): 2.79 ± 0.067

Sequence: APIPKQLLQRIPNIPPN [GAL11]
- protein stability index (doa10∆): 2.69 ± 0.063
- protein stability index (pdr5∆): 2.63 ± 0.066
- protein stability index (san1∆): 2.6 ± 0.07
- protein stability index (ubr1∆): 2.54 ± 0.049

Sequence: RPKCGDCGSALQGISTL [RPL34A]
- protein stability index (doa10∆): 1.34 ± 0.08
- protein stability index (pdr5∆): 1.42 ± 0.067
- protein stability index (san1∆): 1.32 ± 0.1
- protein stability index (ubr1∆): 1.41 ± 0.052

Sequence: SMILIQQTEKLNPQVAD [RPN2]
- protein stability index (doa10∆): 1.53 ± 0.041
- protein stability index (pdr5∆): 1.67 ± 0.044
- protein stability index (san1∆): 1.65 ± 0.073
- protein stability index (ubr1∆): 1.63 ± 0.03

Sequence: ILYEIRALYTPFLLMEL [YDL116W/NUP84]
- protein stability index (doa10∆): 2.66 ± 0.081
- protein stability index (pdr5∆): 2.93 ± 0.064
- protein stability index (san1∆): 2.79 ± 0.066
- protein stability index (ubr1∆): 3.02 ± 0.062

Sequence: RKVVFPFQLDVADMLTP [UBP6]
- protein stability index (doa10∆): 2.29 ± 0.11
- protein stability index (pdr5∆): 2.02 ± 0.12
- protein stability index (san1∆): 2.57 ± 0.078
- protein stability index (ubr1∆): 2.05 ± 0.096

Sequence: EPIDQNTGIVSSTTGMS [RPT3]
- protein stability index (doa10∆): 3.15 ± 0.11
- protein stability index (pdr5∆): 2.65 ± 0.22
- protein stability index (san1∆): 3.39 ± 0.14
- protein stability index (ubr1∆): 3.24 ± 0.089

Sequence: ASYVNIPVIALTDLDSP [RPS0A]
- protein stability index (doa10∆): 1.92 ± 0.063
- protein stability index (pdr5∆): 1.81 ± 0.064
- protein stability index (san1∆): 1.61 ± 0.17
- protein stability index (ubr1∆): 1.88 ± 0.046

Sequence: FKATHILDFGPGGASGL [FAS1]
- protein stability index (doa10∆): 2.75 ± 0.08
- protein stability index (pdr5∆): 3.43 ± 0.14
- protein stability index (ubr1∆): 2.96 ± 0.21

Sequence: KLYKKIAKFERSEEEVT [YIL149C/MLP2]
- protein stability index (doa10∆): 3.25 ± 0.1
- protein stability index (pdr5∆): 3.19 ± 0.078
- protein stability index (san1∆): 3.17 ± 0.064
- protein stability index (ubr1∆): 3.3 ± 0.078

Sequence: SGTSVFEVEMILMQQQM [SRP54]
- protein stability index (doa10∆): 3.3 ± 0.084
- protein stability index (pdr5∆): 3.23 ± 0.071
- protein stability index (san1∆): 3.18 ± 0.07
- protein stability index (ubr1∆): 3.22 ± 0.098

Sequence: KKLLINKDASLALQRGA [DPB4]
- protein stability index (doa10∆): 2.62 ± 0.094
- protein stability index (pdr5∆): 2.75 ± 0.12
- protein stability index (san1∆): 2.44 ± 0.17
- protein stability index (ubr1∆): 3.06 ± 0.092

Sequence: RQYVGQLAPSSVDPQSS [DIS3]
- protein stability index (doa10∆): 2.69 ± 0.05
- protein stability index (pdr5∆): 3.06 ± 0.059
- protein stability index (san1∆): 2.92 ± 0.063
- protein stability index (ubr1∆): 2.62 ± 0.055

Sequence: YLQETAISGKKTTYYYY [RPC82]
- protein stability index (doa10∆): 2.77 ± 0.079
- protein stability index (pdr5∆): 3.02 ± 0.14
- protein stability index (san1∆): 2.84 ± 0.057
- protein stability index (ubr1∆): 3.07 ± 0.075
